# Results from the RNAGym collection of RNA variant scans (doi:10.7554/elife.80360).
# B1: Hammerhead Ribozyme (parent)
# chain: ACCGGAUGUGCUUUCCGGUCUGAUGAGUCCGUGAGGACGAAACAG
# Variants of: B1
# Experiment: self-cleavage, relative activity (ratio to wild type); higher = more cleavage; co-transcriptional
row,Variant,self-cleavage
1,G8A C11U,0.744
2,G8A C15A,0.937
3,G8A C15G,0.957
4,G8A C15U,0.835
5,G8A C16A,1.2
6,G8A C16G,1.03
7,G8A C16U,1.13
8,G8A C20A,0.501
9,G8A C20G,0.381
10,G8A C20U,0.594
11,G8A C29A,0.565
12,G8A C29G,0.667
13,G8A C29U,0.966
14,G8A C30A,0.929
15,G8A C30G,1.04
16,G8A C30U,0.826
17,G8A C38A,0.56
18,G8A C38G,0.708
19,G8A C38U,0.926
20,G8A C43A,0.335
21,G8A C43G,0.344
22,G8A C43U,0.381
23,G8A G10A,1.16
24,G8A G10C,1.46

row,Variant,self-cleavage
1,G8A G10U,1.31
2,G8A G17A,0.539
3,G8A G17C,0.493
4,G8A G17U,0.837
5,G8A G18A,0.664
6,G8A G18C,0.574
7,G8A G18U,0.635
8,G8A G22A,0.403
9,G8A G22C,0.273
10,G8A G22U,0.384
11,G8A G25A,0.405
12,G8A G25C,0.276
13,G8A G25U,0.353
14,G8A G27A,0.874
15,G8A G27C,0.665
16,G8A G27U,0.451
17,G8A G31A,0.849
18,G8A G31C,0.889
19,G8A G31U,1.14
20,G8A G33A,0.9
21,G8A G33C,0.949
22,G8A G33U,1.13
23,G8A G35A,0.939
24,G8A G35C,0.543

row,Variant,self-cleavage
1,G8A G35U,0.588
2,G8A G36A,0.424
3,G8A G36C,0.508
4,G8A G36U,0.5
5,G8A G39A,0.417
6,G8A G39C,0.298
7,G8A G39U,0.369
8,G8A G45A,0.704
9,G8A G45C,0.512
10,G8A G45U,0.859
11,G8A U9A,0.863
12,G8A U9C,1.33
13,G8A U9G,0.85
14,G8A U12A,1.09
15,G8A U12C,0.897
16,G8A U12G,1.25
17,G8A U13A,1.04
18,G8A U13C,1.2
19,G8A U13G,1.24
20,G8A U14A,0.866
21,G8A U14C,0.975
22,G8A U14G,0.988
23,G8A U19A,0.402
24,G8A U19C,0.489

row,Variant,self-cleavage
1,G8A U19G,0.448
2,G8A U21A,0.475
3,G8A U21C,0.742
4,G8A U21G,0.4
5,G8A U24A,1.11
6,G8A U24C,0.979
7,G8A U24G,1.32
8,G8A U28A,0.738
9,G8A U28C,1.36
10,G8A U28G,1.16
11,G8A U32A,1.14
12,G8A U32C,1.02
13,G8A U32G,1.09
14,G8C,1.06
15,G8C A23C,0.45
16,G8C A23G,0.376
17,G8C A23U,0.328
18,G8C A26C,0.434
19,G8C A26G,0.278
20,G8C A26U,0.827
21,G8C A34C,0.83
22,G8C A34G,1.11
23,G8C A34U,0.988
24,G8C A37C,1.05

row,Variant,self-cleavage
1,G8C A37G,1.2
2,G8C A37U,0.842
3,G8C A40C,0.428
4,G8C A40G,0.372
5,G8C A40U,0.286
6,G8C A41C,0.312
7,G8C A41G,0.298
8,G8C A41U,0.388
9,G8C A42C,0.363
10,G8C A42G,0.311
11,G8C A42U,0.266
12,G8C A44C,0.608
13,G8C A44G,1.47
14,G8C A44U,0.56
15,G8C C11A,1.43
16,G8C C11G,1.25
17,G8C C11U,1.02
18,G8C C15A,0.837
19,G8C C15G,0.469
20,G8C C15U,1.26
21,G8C C16A,0.446
22,G8C C16G,0.511
23,G8C C16U,1.32
24,G8C C20A,0.461

row,Variant,self-cleavage
1,G8C C20G,0.288
2,G8C C20U,0.433
3,G8C C29A,0.548
4,G8C C29G,0.571
5,G8C C29U,0.758
6,G8C C30A,0.708
7,G8C C30G,0.886
8,G8C C30U,0.981
9,G8C C38A,0.8
10,G8C C38G,0.596
11,G8C C38U,0.979
12,G8C C43A,0.343
13,G8C C43G,0.403
14,G8C C43U,0.455
15,G8C G10A,1.47
16,G8C G10C,1.47
17,G8C G10U,1.25
18,G8C G17A,0.663
19,G8C G17C,0.397
20,G8C G17U,0.752
21,G8C G18A,0.509
22,G8C G18C,0.564
23,G8C G18U,0.611
24,G8C G22A,0.347

row,Variant,self-cleavage
1,G8C G22C,0.339
2,G8C G22U,0.341
3,G8C G25A,0.284
4,G8C G25C,0.242
5,G8C G25U,0.329
6,G8C G27A,0.787
7,G8C G27C,0.63
8,G8C G27U,0.519
9,G8C G31A,1.06
10,G8C G31C,0.822
11,G8C G31U,0.679
12,G8C G33A,1.11
13,G8C G33C,0.867
14,G8C G33U,0.971
15,G8C G35A,0.769
16,G8C G35C,0.726
17,G8C G35U,0.775
18,G8C G36A,0.652
19,G8C G36C,0.791
20,G8C G36U,0.772
21,G8C G39A,0.347
22,G8C G39C,0.407
23,G8C G39U,0.441
